Test results published in publication PMC6336407.

Experiments:
[1] = target: IRE1-KR43 labeled with RED dye (human); assay: MST; 100 nM IRE1-KR43 labeled with RED dye incubated with 80S at various concentrations for 30 min at 25°C; Monolith NT.115, 20% LED power, 40% IR-laser
[2] = target: IRE1 KR with N-terminal 6× His-tag (human); assay: BLI; His-tagged IRE1 KR coupled to Ni-NTA biosensors; 80S or 60S at 5 to 500 nM in solution; 25°C, 25 mM HEPES pH 7.4, 150 mM KCl, 5 mM MgCl2, 250 µM TCEP; OCTET RED384

Kd [1]: 30 nM
Kd [2]: 33.4 nM
koff [2]: 0.0598 s⁻¹
kon [2]: 1.81e+06 M⁻¹ s⁻¹
Substance: purified 80S ribosomes (complex)
